Consider eleven molecules from US8461305B2, “L-fucose α1→6 specific lectin” (J-Oil Mills, Inc., priority 2008, dated 2013).

Assay [1] concerns the target Aleuria aurantia lectin (AAL) of Comparison Example 1 (Aleuria aurantia) (UniProt P18891). Briefly: hemagglutination inhibition; glycoprotein titrated against lectin at titer 4.
Assay [2] has as its target Aspergillus oryzae lectin (AOL) of Comparison Example 2 (Aspergillus oryzae). Described as above.
Assay [3] deals with α-fetoprotein-L3 (prepared from the culture supernatant of human liver cancer cells) (human) (UniProt P02771). Briefly: ELISA, α-fetoprotein-L3 coated at 0.01 µg/ml, biotin-labeled lectin.
For assay [4], the target named is Lens culinaris agglutinin (LCA) of Comparison Example 3 (Lens culinaris) (UniProt P02870). Briefly: hemagglutination inhibition; glycoprotein titrated against lectin at titer 4.
The target in assay [5] is Pholiota terrestris lectin (PTL) of Example 1 (Pholiota terrestris). The assay is described as above.
Assay [6] concerns the target Pisum sativum agglutinin (PSA) of Comparison Example 4 (Pisum sativum) (UniProt P02867). The description is as above.
Assay [7] addresses Stropharia rugosoannulata lectin (SRL) of Example 2 (Stropharia rugosoannulata). The description is as above.
Assay [8] has as its target α-fetoprotein (derived from human umbilical cord blood serum, mainly L1-type sugar chain) (human) (UniProt P02771). Briefly: ELISA, α-fetoprotein coated at 0.01 µg/ml, biotin-labeled lectin.
In the next assay the target is Transferrin (human) (human, UniProt P02787 20-698, N-linked glycans without L-fucose α1→6). Briefly: Western blotting, glycoprotein on PVDF stained with biotin-labeled lectin. As for the experimental part: (§1) The film was immersed in 10 mM Tris buffer solution including 0.8% NaCl added with 1% BSA (pH 7.4, 1% BSA+TBS) and was shaken at a room temperature for one hour. Then, the film was cleaned three times by 10 mM Tris buffer solution (pH 7.4, TBS) including 0.8% NaCl. Then, the film was immersed in biotin-labeled lectin solution (2 µg/ml) and was shaken at a room temperature for one hour. Then, the film was cleaned three times by TBS. Then, the film was immersed in the HRP label streptavidin solution at 1 µg/ml (Vector Laboratories) and was shaken at a room temperature for 30 minutes. After the film was cleaned three times by TBS, a POD immunostain set (Wako Pure Chemical Industries, Ltd.) was used to perform a staining test. The staining test is to detect glycoprotein by the western blotting using biotin-labeled lectin. FIG. 13 to FIG. 17 are photographs showing the following glycoproteins stained by PTL (FIG. 13), SRL (FIG. 14), AAL (FIG. 15), AOL (FIG. 16), or LCA (FIG. 17).

For a further assay, the target named is Lactoferrin (bovine) (bovine, UniProt P24627 20-708, L-fucose α1→6 N-linked glycans). Put plainly: Western blotting, glycoprotein on PVDF stained with biotin-labeled lectin; ◯ = Detected. The procedure:
as §1

In another assay the target is T1, Invertase (yeast) (yeast, UniProt P00724 20-532, high mannose-type sugar chains).
T1 sequence (looked up): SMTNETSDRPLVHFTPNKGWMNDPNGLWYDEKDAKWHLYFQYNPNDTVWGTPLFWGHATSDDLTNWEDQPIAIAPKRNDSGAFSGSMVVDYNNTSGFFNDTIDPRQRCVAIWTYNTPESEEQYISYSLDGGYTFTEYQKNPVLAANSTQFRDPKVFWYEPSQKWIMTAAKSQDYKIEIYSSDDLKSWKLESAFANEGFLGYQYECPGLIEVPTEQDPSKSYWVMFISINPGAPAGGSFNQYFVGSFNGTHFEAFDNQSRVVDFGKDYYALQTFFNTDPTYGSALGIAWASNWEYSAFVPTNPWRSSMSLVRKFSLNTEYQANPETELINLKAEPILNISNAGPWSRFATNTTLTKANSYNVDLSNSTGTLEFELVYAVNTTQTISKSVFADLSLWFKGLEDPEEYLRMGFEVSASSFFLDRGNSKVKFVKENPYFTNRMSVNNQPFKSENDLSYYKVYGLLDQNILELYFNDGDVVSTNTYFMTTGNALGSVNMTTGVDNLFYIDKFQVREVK
Briefly: ELISA, glycoprotein coated, biotin-labeled lectin; relative value with thyroglobulin = 100%. The procedure: (§2) The glycoprotein and albumin as protein not including a sugar chain as a control were dissolved in 0.1 M carbonic acid buffer solution (pH 9.5) at 1 mg/ml. Then, the resultant solution was added to a microtiter plate (Nunc 439454) and was incubated at 4 degrees C. overnight. Then, the resultant solution was cleaned by 0.05% Tween/PBS three times. Thereafter, 1% BSA/PBS was added to wells and the solution was incubated at 37 degrees C. for one hour. Then, after the solution was cleaned by 0.05% Tween/PBS three times, biotin labeled-lectin appropriately diluted by 1% BSA/0.05% Tween/PBS was added to the wells and the solution was incubated at 37 degrees C. for one hour. After the solution was cleaned by 0.05% Tween/PBS three times, HRP labeled streptavidin solution diluted by 1% BSA/0.05% Tween/PBS was added to wells and the solution was incubated at 37 degrees C. for 30 minutes. After the solution was cleaned by 0.05% Tween/PBS three times, TMB Peroxidase substrate system (KPL) was added and the resultant solution was incubated at a room temperature for 10 minutes while light was being blocked.
(§3) The reaction was stopped by 1 M phosphoric acid. Then, a microplate reader (MPR-A4i, TOSOH CORPORATION) was used to measure the absorbance at 450 nm. Based on this value, reaction value ([absorbance at 450 nm of a well for which glycoprotein was solid-phased to the plate and
(§4) […] reacted]−[absorbance at 450 nm of a well for which glycoprotein was not solid-phased to the plate and reacted] was calculated. Next, for each lectin, the interaction strength (relative value) to each glycoprotein was calculated based on an assumption that the glycoprotein (thyroglobulin) value was 100%. The calculation result is shown in Table 9 and FIG. 19 to FIG. 23.

In the next assay the target is T2, Bovine serum albumin (bovine, UniProt P02769 25-607).
T2 construct: Control protein without a sugar chain; also called Bovine blood serum albumin; Blood serum albumin (bovine)
The assay is described as above. The procedure: as §2, §3, §4

The target of another assay is Thyroglobulin (pig) (pig, UniProt F1RRV3 20-2692, L-fucose α1→6 N-linked glycans). Briefly: ELISA, glycoprotein coated, biotin-labeled lectin; thyroglobulin set to 100%; ⊚ = relative values of 120 to 80. The procedure: The glycoprotein and albumin as protein not including a sugar chain as a control were dissolved in 0.1 M carbonic acid buffer solution (pH 9.5) at 1 mg/ml. Then, the resultant solution was added to a microtiter plate (Nunc 439454) and was incubated at 4 degrees C. overnight. Then, the resultant solution was cleaned by 0.05% Tween/PBS three times. Thereafter, 1% BSA/PBS was added to wells and the solution was incubated at 37 degrees C. for one hour. Then, after the solution was cleaned by 0.05% Tween/PBS three times, biotin labeled-lectin appropriately diluted by 1% BSA/0.05% Tween/PBS was added to the wells and the solution was incubated at 37 degrees C. for one hour. […]
as §3
In contrast with this, in the case of PTL of Example 1 and SRL of Example 2, only glycoprotein having sL-fucose α1→6 sugar chain is detected and a non-L-fucose α1→6 reacted]−[absorbance at 450 nm of a well for which glycoprotein was not solid-phased to the plate and reacted] was calculated. […]

Sequence of α-fetoprotein-L3 (prepared from the culture supernatant of human liver cancer cells) (human) (P02771 19-609 limits assumed): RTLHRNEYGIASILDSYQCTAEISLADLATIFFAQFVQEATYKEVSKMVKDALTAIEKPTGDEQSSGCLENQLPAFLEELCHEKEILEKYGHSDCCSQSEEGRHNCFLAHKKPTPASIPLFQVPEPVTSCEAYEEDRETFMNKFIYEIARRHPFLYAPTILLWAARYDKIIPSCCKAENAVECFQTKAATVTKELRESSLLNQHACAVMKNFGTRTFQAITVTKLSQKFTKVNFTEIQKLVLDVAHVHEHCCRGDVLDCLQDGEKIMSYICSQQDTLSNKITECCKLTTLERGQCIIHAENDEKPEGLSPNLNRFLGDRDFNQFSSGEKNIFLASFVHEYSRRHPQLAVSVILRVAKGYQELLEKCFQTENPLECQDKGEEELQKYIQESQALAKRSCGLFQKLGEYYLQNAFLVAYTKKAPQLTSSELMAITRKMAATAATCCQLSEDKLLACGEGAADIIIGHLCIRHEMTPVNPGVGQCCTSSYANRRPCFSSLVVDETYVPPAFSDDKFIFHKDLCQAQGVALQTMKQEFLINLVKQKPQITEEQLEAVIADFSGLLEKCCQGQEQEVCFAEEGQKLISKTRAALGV
Sequence of α-fetoprotein (derived from human umbilical cord blood serum, mainly L1-type sugar chain) (human) (P02771 19-609 limits assumed): as above
Sequence of Transferrin (human) (P02787 20-698 limits assumed): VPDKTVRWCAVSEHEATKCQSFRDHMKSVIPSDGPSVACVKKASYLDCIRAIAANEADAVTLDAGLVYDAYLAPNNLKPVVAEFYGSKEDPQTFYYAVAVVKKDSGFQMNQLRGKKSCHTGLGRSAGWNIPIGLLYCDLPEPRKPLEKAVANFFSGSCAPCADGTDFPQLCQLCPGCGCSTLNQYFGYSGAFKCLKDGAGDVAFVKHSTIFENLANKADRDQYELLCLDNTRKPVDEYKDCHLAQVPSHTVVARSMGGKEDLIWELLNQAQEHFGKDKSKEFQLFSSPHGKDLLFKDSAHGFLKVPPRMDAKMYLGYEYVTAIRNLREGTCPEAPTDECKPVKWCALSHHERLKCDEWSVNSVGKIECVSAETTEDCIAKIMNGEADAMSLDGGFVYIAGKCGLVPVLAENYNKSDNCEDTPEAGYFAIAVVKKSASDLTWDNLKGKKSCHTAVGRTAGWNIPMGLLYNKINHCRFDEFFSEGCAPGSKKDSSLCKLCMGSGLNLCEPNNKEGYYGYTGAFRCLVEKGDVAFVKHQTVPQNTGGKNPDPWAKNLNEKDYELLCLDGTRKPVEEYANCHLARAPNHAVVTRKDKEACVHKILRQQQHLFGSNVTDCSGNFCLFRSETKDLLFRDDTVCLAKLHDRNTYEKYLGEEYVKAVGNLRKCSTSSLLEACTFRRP
T2 sequence (P02769 25-607 limits assumed): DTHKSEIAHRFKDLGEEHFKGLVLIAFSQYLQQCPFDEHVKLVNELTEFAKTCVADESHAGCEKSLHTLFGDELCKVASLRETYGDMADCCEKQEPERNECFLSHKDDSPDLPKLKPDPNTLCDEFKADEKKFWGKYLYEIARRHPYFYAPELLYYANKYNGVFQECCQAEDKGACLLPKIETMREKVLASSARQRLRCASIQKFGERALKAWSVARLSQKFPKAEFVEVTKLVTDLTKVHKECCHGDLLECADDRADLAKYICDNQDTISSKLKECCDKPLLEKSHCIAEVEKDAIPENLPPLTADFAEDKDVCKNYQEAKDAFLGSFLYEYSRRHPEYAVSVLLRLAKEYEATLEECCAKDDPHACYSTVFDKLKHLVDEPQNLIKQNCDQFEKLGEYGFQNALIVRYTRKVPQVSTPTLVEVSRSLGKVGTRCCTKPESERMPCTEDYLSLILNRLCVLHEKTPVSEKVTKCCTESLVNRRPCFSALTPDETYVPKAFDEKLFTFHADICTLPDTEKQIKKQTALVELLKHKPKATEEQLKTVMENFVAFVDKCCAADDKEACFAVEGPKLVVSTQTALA
Sequence of Aspergillus oryzae lectin (AOL) of Comparison Example 2 (Aspergillus oryzae) (Q8TGE0 whole entry): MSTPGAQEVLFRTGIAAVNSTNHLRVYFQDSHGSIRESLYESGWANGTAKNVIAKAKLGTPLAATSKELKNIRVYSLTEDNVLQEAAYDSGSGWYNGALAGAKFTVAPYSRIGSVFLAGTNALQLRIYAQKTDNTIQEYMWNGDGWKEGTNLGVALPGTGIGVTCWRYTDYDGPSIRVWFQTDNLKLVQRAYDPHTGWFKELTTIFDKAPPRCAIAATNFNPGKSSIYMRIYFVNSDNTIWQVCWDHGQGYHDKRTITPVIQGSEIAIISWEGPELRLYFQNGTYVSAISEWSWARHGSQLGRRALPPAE
Sequence of Thyroglobulin (pig) (F1RRV3 20-2692 limits assumed): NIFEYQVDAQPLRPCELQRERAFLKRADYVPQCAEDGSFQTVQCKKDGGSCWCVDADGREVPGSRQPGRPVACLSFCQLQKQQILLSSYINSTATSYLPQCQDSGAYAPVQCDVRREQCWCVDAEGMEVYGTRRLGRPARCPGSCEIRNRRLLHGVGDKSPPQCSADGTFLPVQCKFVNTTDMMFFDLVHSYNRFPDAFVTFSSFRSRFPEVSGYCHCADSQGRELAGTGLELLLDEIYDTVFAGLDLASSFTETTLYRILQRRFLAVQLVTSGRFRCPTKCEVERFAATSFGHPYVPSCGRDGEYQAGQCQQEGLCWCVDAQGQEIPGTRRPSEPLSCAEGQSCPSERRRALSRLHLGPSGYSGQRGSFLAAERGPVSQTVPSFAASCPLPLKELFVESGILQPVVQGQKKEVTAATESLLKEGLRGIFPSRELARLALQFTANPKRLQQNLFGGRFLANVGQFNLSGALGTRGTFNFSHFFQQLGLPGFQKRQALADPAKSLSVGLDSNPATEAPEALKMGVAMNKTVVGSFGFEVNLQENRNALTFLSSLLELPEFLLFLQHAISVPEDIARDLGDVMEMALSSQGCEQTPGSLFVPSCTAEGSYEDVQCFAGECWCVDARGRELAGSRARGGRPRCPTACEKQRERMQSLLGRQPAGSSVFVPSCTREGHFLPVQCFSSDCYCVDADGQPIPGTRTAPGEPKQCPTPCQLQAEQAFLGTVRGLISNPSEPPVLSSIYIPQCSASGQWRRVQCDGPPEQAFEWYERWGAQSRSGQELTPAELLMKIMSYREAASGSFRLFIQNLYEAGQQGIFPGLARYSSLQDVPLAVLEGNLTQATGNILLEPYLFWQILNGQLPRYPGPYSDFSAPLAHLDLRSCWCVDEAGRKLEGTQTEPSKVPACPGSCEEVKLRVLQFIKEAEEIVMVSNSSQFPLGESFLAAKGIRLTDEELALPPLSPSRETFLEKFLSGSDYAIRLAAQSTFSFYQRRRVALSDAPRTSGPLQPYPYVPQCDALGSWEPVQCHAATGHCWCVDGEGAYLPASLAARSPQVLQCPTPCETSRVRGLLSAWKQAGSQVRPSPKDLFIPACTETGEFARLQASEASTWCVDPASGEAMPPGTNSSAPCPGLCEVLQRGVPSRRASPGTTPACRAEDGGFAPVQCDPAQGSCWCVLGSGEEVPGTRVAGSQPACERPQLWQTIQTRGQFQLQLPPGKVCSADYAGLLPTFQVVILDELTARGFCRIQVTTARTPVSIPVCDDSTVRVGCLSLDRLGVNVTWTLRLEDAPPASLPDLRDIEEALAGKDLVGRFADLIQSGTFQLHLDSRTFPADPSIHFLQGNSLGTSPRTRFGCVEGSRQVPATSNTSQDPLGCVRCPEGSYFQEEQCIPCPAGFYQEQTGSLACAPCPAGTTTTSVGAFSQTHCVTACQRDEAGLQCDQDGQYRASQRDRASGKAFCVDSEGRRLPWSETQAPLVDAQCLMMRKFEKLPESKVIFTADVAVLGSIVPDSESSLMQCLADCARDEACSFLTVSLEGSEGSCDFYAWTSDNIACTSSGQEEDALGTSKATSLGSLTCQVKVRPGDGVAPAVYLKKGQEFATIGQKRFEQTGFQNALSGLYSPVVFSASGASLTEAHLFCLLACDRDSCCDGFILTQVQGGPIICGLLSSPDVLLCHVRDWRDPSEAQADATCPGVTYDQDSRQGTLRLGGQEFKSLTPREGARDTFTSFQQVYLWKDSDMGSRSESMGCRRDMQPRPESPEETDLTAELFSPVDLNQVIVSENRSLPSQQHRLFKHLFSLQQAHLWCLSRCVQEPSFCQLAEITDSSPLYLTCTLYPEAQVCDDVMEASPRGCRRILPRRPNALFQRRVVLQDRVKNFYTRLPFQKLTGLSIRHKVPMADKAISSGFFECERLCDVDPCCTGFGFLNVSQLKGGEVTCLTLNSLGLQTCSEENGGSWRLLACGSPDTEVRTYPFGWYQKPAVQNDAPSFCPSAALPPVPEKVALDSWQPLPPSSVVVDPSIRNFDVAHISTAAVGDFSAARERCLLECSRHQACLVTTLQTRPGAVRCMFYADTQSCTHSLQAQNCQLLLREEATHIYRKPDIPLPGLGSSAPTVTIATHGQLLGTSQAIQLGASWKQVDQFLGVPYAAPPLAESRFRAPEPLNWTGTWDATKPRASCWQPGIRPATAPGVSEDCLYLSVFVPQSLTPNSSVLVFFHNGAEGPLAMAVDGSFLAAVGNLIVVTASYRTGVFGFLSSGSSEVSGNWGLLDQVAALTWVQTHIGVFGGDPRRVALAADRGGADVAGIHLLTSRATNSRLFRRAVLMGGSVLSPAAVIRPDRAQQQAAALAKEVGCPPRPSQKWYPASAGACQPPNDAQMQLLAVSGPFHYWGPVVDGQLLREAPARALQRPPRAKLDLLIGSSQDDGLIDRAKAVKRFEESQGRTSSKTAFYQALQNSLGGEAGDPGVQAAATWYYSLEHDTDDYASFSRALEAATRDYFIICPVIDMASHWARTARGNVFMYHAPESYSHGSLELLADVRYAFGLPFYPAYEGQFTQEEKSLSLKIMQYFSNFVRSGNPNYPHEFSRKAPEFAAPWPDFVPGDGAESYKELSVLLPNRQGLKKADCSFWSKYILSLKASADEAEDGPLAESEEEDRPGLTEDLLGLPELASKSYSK

With Mucin (pig), the minimum inhibition concentration in [1] was determined as 15.6 µl/ml; in assay [2], 62.5 µl/ml.

On to “Pholiota terrestris lectin (PTL) of Example 1”, for which the reaction value (absorbance at 450 nm, blank subtracted) (absorbance at 450 nm) in assay [3] came to 1.55.

Consider “Thyroglobulin (Table 3 and affinity column, species not stated)”, for which the minimum inhibition concentration in [1] came to 125 µl/ml; in assay [4], 62.5 µl/ml; in assay [5], 250 µl/ml; in [6] it was 62.5 µl/ml; in [7], 250 µl/ml.

Turning to Asialomucin (pig), the minimum inhibition concentration in [1] amounted to 31.3 µl/ml; in assay [2], 62.5 µl/ml.

Turning to “Stropharia rugosoannulata lectin (SRL) of Example 2”, the reaction value (absorbance at 450 nm, blank subtracted) (absorbance at 450 nm) in assay [8] is 0.031; in assay [3] it was 1.62.

Molecule “Aleuria aurantia lectin (AAL) of Comparison Example 1 (from UniProt P18891 2-313)” yielded a reaction value (absorbance at 450 nm, blank subtracted) (absorbance at 450 nm) in assay [3] of 0.795.

In the case of Asialofetuin, the minimum inhibition concentration in assay [4] is 250 µl/ml.

With “Lens culinaris agglutinin (LCA) of Comparison Example 3 (from UniProt P02870 31-210; P02870 218-269)”, the figures for the reaction value (absorbance at 450 nm, blank subtracted) (absorbance at 450 nm) in assay [8] and in assay [3] were 0.01 and 0.455, respectively.

Take “Aspergillus oryzae lectin (AOL) of Comparison Example 2”: the reaction value (absorbance at 450 nm, blank subtracted) (absorbance at 450 nm) turned out to be 0.011 in assay [8] and 0.898 in [3].

B1: Aleuria aurantia lectin (AAL) of Comparison Example 1 (other, UniProt P18891 2-313, looked up)
chain: PTEFLYTSKIAAISWAATGGRQQRVYFQDLNGKIREAQRGGDNPWTGGSSQNVIGEAKLFSPLAAVTWKSAQGIQIRVYCVNKDNILSEFVYDGSKWITGQLGSVGVKVGSNSKLAALQWGGSESAPPNIRVYYQKSNGSGSSIHEYVWSGKWTAGASFGSTVPGTGIGATAIGPGRLRIYYQATDNKIREHCWDSNSWYVGGFSASASAGVSIAAISWGSTPNIRVYWQKGREELYEAAYGGSWNTPGQIKDASRPTPSLPDTFIAANSSGNIDISVFFQASGVSLQQWQWISGKGWSIGAVVPTGTPAGW
modifications: biotin-labeled in the Western blotting and ELISA experiments
notes: Bought lectin
As for B1, the binding result was “no binding (tested: biotin-labeled lectin 2 µg/ml)” with Transferrin (human); “binds” with Lactoferrin (bovine); “no binding (tested: relative value 10 or less)” in the assay with Invertase (yeast); “no binding (tested: relative value 10 or less)” with Bovine serum albumin; “binds” with Thyroglobulin (pig).

B2: Lens culinaris agglutinin (LCA) of Comparison Example 3 (other)
chain 1: TETTSFSITKFSPDQKNLIFQGDGYTTKGKLTLTKAVKSTVGRALYSTPIHIWDRDTGNVANFVTSFTFVIDAPSSYNVADEFTFFIAPVDTKPQTGGGYLGVFNSKEYDKTSQTVAVEFDTFYNAAWDPSNKERHIGIDVNSIKSVNTKSWNLQNGERANVVIAFNAATNVLTVTLTYP
chain 2: VTSYTLNEVVPLKDVVPEWVRIGFSATTGAEFAAHEVHSWSFHSELGGTSSS
modifications: biotin-labeled in the Western blotting and ELISA experiments
notes: Bought lectin
Turning to B2, the binding result in the assay with Transferrin (human) was “no binding (tested: biotin-labeled lectin 2 µg/ml)”; with Bovine serum albumin, “no binding (tested: relative value 10 or less)”.
